Patent US20210246166A1 (Bayer, published 2021)
Numbered stars: 1 amine (or outer) side, 2 acyl side, 3 side chain; on linkers, the order of the positions; unused ones are H or OH. Bridge positions count the residues as written; N and C are the ends. Square brackets hold non-standard residues; d marks the D form. Ends that are not written are not given here. * marks the point of attachment. (3-Chloro-Ph)G = 3-chlorophenylglycine, O=C([C@@H](N[*:1])c1cccc(Cl)c1)[*:2]; Pro(cis-4-CF3) = O=C(O)[C@@H]1C[C@H](C(F)(F)F)CN1; C18 diacid = O=C(O)CCCCCCCCCCCCCCCCC(=O)*; Oic = O=C(O)[C@@H]1C[C@@H]2CCCC[C@@H]2N1; tBuAla = CC(C)(C)C[C@H](N)C(=O)O; Aad = N[C@@H](CCCC(=O)O)C(=O)O; Pen = CC(C)(S)[C@H](N)C(=O)O; PEG3 = NCCOCCOCCOCCC(=O)O; Orn = NCCC[C@H](N)C(=O)O; Sar = CNCC(=O)O

T1: Recombinant human MASP1 enzyme (fragment corresponding to amino acids 297-699, C-terminal His Tag) (human, UniProt P48740 297-699)
T1 sequence: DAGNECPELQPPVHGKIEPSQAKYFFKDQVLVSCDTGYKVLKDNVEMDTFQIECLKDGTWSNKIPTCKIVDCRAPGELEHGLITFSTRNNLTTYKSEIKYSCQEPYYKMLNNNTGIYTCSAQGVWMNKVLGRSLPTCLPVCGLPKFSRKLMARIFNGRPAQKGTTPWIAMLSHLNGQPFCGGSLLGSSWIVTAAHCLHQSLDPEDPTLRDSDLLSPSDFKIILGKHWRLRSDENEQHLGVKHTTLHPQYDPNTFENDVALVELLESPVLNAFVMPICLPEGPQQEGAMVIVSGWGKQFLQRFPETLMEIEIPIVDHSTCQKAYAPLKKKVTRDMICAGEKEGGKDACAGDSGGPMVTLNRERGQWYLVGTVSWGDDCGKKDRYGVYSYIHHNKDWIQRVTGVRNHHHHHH

B1: ((N-Me)G)-IC+SRSLP-(Oic)-I-(Pen)+IP-(AAD)-OH (peptide)
peptide: [Sar]ICSRSLP[Oic]I[Pen]IP[Aad]-OH
modifications: disulfide 3-11; N-terminus assumed
SMILES: CC[C@H](C)[C@H](NC(=O)CNC)C(=O)N[C@H]1CSSC(C)(C)[C@@H](C(=O)N[C@H](C(=O)N2CCC[C@H]2C(=O)N[C@@H](CCCC(=O)O)C(=O)O)[C@@H](C)CC)NC(=O)[C@H]([C@@H](C)CC)NC(=O)[C@@H]2C[C@@H]3CCCC[C@@H]3N2C(=O)[C@@H]2CCCN2C(=O)[C@H](CC(C)C)NC(=O)[C@H](CO)NC(=O)[C@H](CCCNC(=N)N)NC(=O)[C@H](CO)NC1=O
B2: ((N-Me)G)-IC+SRS-((tBu)A)-PPI-(Pen)+IP-(PEG2(13 atoms))-OH (peptide)
peptide: [Sar]ICSRS[tBuAla]PPI[Pen]IP[PEG3]-OH
modifications: disulfide 3-11; N-terminus assumed
SMILES: CC[C@H](C)[C@H](NC(=O)CNC)C(=O)N[C@H]1CSSC(C)(C)[C@@H](C(=O)N[C@H](C(=O)N2CCC[C@H]2C(=O)NCCOCCOCCOCCC(=O)O)[C@@H](C)CC)NC(=O)[C@H]([C@@H](C)CC)NC(=O)[C@@H]2CCCN2C(=O)[C@@H]2CCCN2C(=O)[C@H](CC(C)(C)C)NC(=O)[C@H](CO)NC(=O)[C@H](CCCNC(=N)N)NC(=O)[C@H](CO)NC1=O
B3: AIC+SRSLPP-((3-Chloro-Ph)G)-C+IPD-OH (peptide)
peptide: AICSRSLPP[(3-Chloro-Ph)G]CIPD-OH
modifications: disulfide 3-11; N-terminus assumed
SMILES: CC[C@H](C)[C@H](NC(=O)[C@H](C)N)C(=O)N[C@H]1CSSC[C@@H](C(=O)N[C@H](C(=O)N2CCC[C@H]2C(=O)N[C@@H](CC(=O)O)C(=O)O)[C@@H](C)CC)NC(=O)[C@H](c2cccc(Cl)c2)NC(=O)[C@@H]2CCCN2C(=O)[C@@H]2CCCN2C(=O)[C@H](CC(C)C)NC(=O)[C@H](CO)NC(=O)[C@H](CCCNC(=N)N)NC(=O)[C@H](CO)NC1=O
B4: (ODD)-AIC+SRSLP-(Oic)-I-(Pen)+IPD-(Orn)-OH (peptide)
peptide: {C18 diacid}-AICSRSLP[Oic]I[Pen]IPD[Orn]-OH
modifications: disulfide 3-11
SMILES: CC[C@H](C)[C@H](NC(=O)[C@H](C)NC(=O)CCCCCCCCCCCCCCCCC(=O)O)C(=O)N[C@H]1CSSC(C)(C)[C@@H](C(=O)N[C@H](C(=O)N2CCC[C@H]2C(=O)N[C@@H](CC(=O)O)C(=O)N[C@@H](CCCN)C(=O)O)[C@@H](C)CC)NC(=O)[C@H]([C@@H](C)CC)NC(=O)[C@@H]2C[C@@H]3CCCC[C@@H]3N2C(=O)[C@@H]2CCCN2C(=O)[C@H](CC(C)C)NC(=O)[C@H](CO)NC(=O)[C@H](CCCNC(=N)N)NC(=O)[C@H](CO)NC1=O
B5: AIC+SRSLP-((4-CF3)P)-IC+IPD-OH (peptide)
peptide: AICSRSLP[Pro(cis-4-CF3)]ICIPD-OH
modifications: disulfide 3-11; N-terminus assumed
SMILES: CC[C@H](C)[C@H](NC(=O)[C@H](C)N)C(=O)N[C@H]1CSSC[C@@H](C(=O)N[C@H](C(=O)N2CCC[C@H]2C(=O)N[C@@H](CC(=O)O)C(=O)O)[C@@H](C)CC)NC(=O)[C@H]([C@@H](C)CC)NC(=O)[C@@H]2C[C@H](C(F)(F)F)CN2C(=O)[C@@H]2CCCN2C(=O)[C@H](CC(C)C)NC(=O)[C@H](CO)NC(=O)[C@H](CCCNC(=N)N)NC(=O)[C@H](CO)NC1=O
B6: AIC+SRS-((tBu)A)-P-((4-CF3)P)-I-(Pen)+IPD-OH (peptide)
peptide: AICSRS[tBuAla]P[Pro(cis-4-CF3)]I[Pen]IPD-OH
modifications: disulfide 3-11; N-terminus assumed
SMILES: CC[C@H](C)[C@H](NC(=O)[C@H](C)N)C(=O)N[C@H]1CSSC(C)(C)[C@@H](C(=O)N[C@H](C(=O)N2CCC[C@H]2C(=O)N[C@@H](CC(=O)O)C(=O)O)[C@@H](C)CC)NC(=O)[C@H]([C@@H](C)CC)NC(=O)[C@@H]2C[C@H](C(F)(F)F)CN2C(=O)[C@@H]2CCCN2C(=O)[C@H](CC(C)(C)C)NC(=O)[C@H](CO)NC(=O)[C@H](CCCNC(=N)N)NC(=O)[C@H](CO)NC1=O

How the values were obtained:
[1] = biological target: Recombinant human MASP2 enzyme (fragment corresponding to amino acids 297-686, C-terminal His Tag) (human, UniProt O00187 297-686); test: cell-based or functional assay
Sequence of Recombinant human MASP2 enzyme (fragment corresponding to amino acids 297-686, C-terminal His Tag) (O00187 other isoform, or with tags, fused parts or gaps limits assumed): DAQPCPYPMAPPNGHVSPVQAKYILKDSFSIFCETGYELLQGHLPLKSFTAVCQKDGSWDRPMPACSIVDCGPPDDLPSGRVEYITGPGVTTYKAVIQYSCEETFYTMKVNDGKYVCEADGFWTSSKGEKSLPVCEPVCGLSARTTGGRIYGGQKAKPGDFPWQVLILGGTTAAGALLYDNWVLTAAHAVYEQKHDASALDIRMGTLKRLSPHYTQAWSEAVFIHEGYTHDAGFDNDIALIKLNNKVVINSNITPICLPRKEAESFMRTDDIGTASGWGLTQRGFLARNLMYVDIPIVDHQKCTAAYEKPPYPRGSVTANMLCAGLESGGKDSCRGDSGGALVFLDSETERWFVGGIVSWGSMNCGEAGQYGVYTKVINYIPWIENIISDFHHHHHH

[2] = biological target: T1, Recombinant human MASP1 enzyme …; test: cell-based or functional assay

Row | Binder | human MASP2 IC50 [1] [nM] | human MASP1 IC50 [2] [nM]
1 | B1 | 150 | 7
2 | B2 | 46 | 5.3
3 | B3 | 1000 | 526
4 | B4 | 1000 | 1000
5 | B5 | 1000 | 7.5
6 | B6 | 510 | 3.1
